{"source": "paper PMC8776730", "about": "(Nature Communications, 2022)", "system": "MIA PaCa-2 tumor", "conditions": "mouse, in vivo, 16 mg/kg", "description": "In order to reduce systemic error and individual difference, we constructed the subcutaneous pancreatic cancer model in mice for quantitatively calculating of the metabolic data.\nAll the animal experiments were performed in accordance with the Guide for the Care and Use of Laboratory Animals approved by the Committee for Animal Research of the National Center for Nanoscience and Technology. The MIA PaCa-2 tumor-bearing mice were intravenously injected with ICG, M1 and M2 (16 mg/kg), respectively for in vivo fluorescence imaging with in vivo spectrum imaging system. Finally, mice were sacrificed to collect the major organs and tumors for ex vivo fluorescence imaging.", "data": [{"substance": "mPEG-GPAKLVFFGC(IR783)GRGD [M1]", "values": [{"measurement": "AUC 0-120 h in tumor tissue relative to M2", "result": 3.6, "unit": "times"}, {"measurement": "reduction of tumor fluorescence signal between 12 h and 120 h", "result": 27.6, "unit": "%"}, {"measurement": "time to peak of tumor signal", "result": "~12", "unit": "h"}, {"measurement": "retention in tumor lasted", "setting": "iv", "result": "up to 96 h"}]}]}
